According to patent US20190004052A1 (published 2019):
Non-standard residues stand in square brackets, D forms with d. No end group written: not given here. pS = N[C@@H](COP(=O)(O)O)C(=O)O

Biological target: T1, Phosphopeptide TF1-Pser258 CKEN(pS)PLNVS (human)
T1 construct: Synthetic phosphopeptide
T1 peptide: CKEN[pS]PLNVS
Experiment: peptide ELISA, optical density (FIG. 7)

B1: hybrid IgG2b anti-TF2-Pser253 monoclonal antibody MAb 680 (antibody, V domains shown)
VH: DVQLQESGPGLVKPSQSLSLTCTVTGYSITSDYAWNWIRQFPGNKLEWMGYISYSGSTSYNPSLKSRISITRDTSKNQFFLQLNSVTTEDTATYYCARIRGYLAMDYWGQGTSVTVSS
VL: DIVMTQAAFSNPVTLGTSASISCRSSKSLLHSNGITYLYWYLQKPGQSPQLLIYQMSNLASGVPDRFSSSGSGTDFTLRISRVEAEDVGVYYCAQNLELPPTFGGGTKLEIKR
notes: The Fab portion of IgM clone 4A6-4B5-1E2 was fused onto murine IgG2b light and heavy chains and made in HEK cells; also called M680; hybrid IgG anti-TF2-pser253 M680
binding result: no binding
